Data taken from US4844895A, “Composition containing a peptide fragment of platelet factor four and method for restoring suppressed immune responses” (New York University, priority 1987, dated 1989).

B1: LA-PF4: low-affinity platelet factor 4, platelet alpha-granule constituent (protein, UniProt P02775 44-128, looked up)
Connective tissue-activating …: NLAKGKEESLDSDLYAELRCMCIKTTSGIHPKNIQSLEVIGKGTHCNQVEVIATLKDGRKICLDPDAPRIKKIVQKKLAGDESAD
modifications: Connective tissue-activating peptide III
B2: PF4: human platelet factor 4 purified from platelet releasate on heparin-agarose (protein, UniProt P02776 32-101, looked up)
Platelet factor 4: EAEEDGDLQCLCVKTTSQVRPRHITSLEVIKAGPHCPTAQLIATLKNGRKICLDLQAPLYKKIIKKLLES

Columns and labels:
[1] = test system: Con A-induced suppression; assay: Reversal of Con A-induced suppression of the splenic plaque-forming cell (PFC) response to SRBC in mice; type: in vivo; settings: for Geom. Mean of PFC/Spleen On Day 5, Expt. 2 / Immunomodulatory activity against suppression induced by 5 μg Con A (result in words): LA-PF4 0.6 μg; for Immunomodulatory activity against suppression induced by 5 μg Con A (result in words): concentrations well below those in serum: PDGF 0.003 μg, purified PF4 0.2 to 0.6 μg per mouse; for Reversal of Con A-induced suppression (result in words): mice, PFC response to SRBC
Description: Concanavalin A (Miles--Yeda Ltd., Research Products, Israel) was reconstituted with saline and kept frozen. Dilutions from the frozen stock were stored at 4° C. and injected i.v. into mice one day prior to antigen, sheep erythrocytes (SRBC). SRBC were obtained from Colorado Serum Company (Denver, Colorado) washed, counted and injected intraperitoneally (i.p.) in mice. Human serum or platelet releasate was administered i.v. one to two hours before Con A i.v.
The spleens of the mice were assayed for plaque-forming cells (PFC) on day 5 after injection of sheep red blood cells. The assay employed was as follows: single-cell suspensions were prepared from individual spleens of mice. The cells were suspended in Hanks' Balanced Salt Solution (Gibco Laboratories, Grand Island, New York) and washed. Direct PFC were enumerated using the well-known method of Jerne, N.K. et al (in Cell-Bound Antibody, Amos, E. and Koprowsky, H. eds., Wistar Institute Press. pp. 109-111, […]) with the slide modification of Mishell, R.I. and Dutton, R.W. (J. Exp. Med. 126:423, 1967), both incorporated by reference. […]
When treated with thrombin or A23187 (Calcium ionophore), platelets also release alpha granule constituents other than PF4. In particular, they release LA-PF4 and PDGF. The inventors tested the ability of LA-PF4 and PDGF to overcome suppression induced by 5 μg Con A. […]
Mice were injected with 10 micrograms of Con A i.v. on day -1 (except in the positive control, which received no Con A) and on day 0 with 2.5×10^6 SRBC per mouse as in Example 2 above. On day -1, the mice also received either: Nothing (100% control), Con A only, platelet releasate (equivalent to the amount of PF4 holoprotein contained in the platelet releasate from 2×10^7 platelets or about 0.12 microgram/mouse) and various concentrations of the above-mentioned synthetic C-terminal peptide of human PF4.

[2] = test system: PFC response to SRBC; assay: PFC response to SRBC in mice not injected with Con A (adjuvant effect); design: species or system CB6F1 mouse; settings: mouse, in vivo
Description: The spleens of the mice were assayed for plaque-forming cells (PFC) on day 5 after injection of sheep red blood cells. The assay employed was as follows: single-cell suspensions were prepared from individual spleens of mice. The cells were suspended in Hanks' Balanced Salt Solution (Gibco Laboratories, Grand Island, New York) and washed. Direct PFC were enumerated using the well-known method of Jerne, N.K. et al (in Cell-Bound Antibody, Amos, E. and Koprowsky, H. eds., Wistar Institute Press. pp. 109-111, […]) with the slide modification of Mishell, R.I. and Dutton, R.W. (J. Exp. Med. 126:423, 1967), both incorporated by reference.
In order to confirm and expand this finding, 1 ml o serum, diluted 1:2, was absorbed twice for thirty minutes at 4° C. using half the number of cells for each absorption as are listed for spleen (Sp1), lymphnode (LN) and thymus (Thy) in Table 3. Each CB6F1 mouse received 0.2 ml of a 1:4 dilution of absorbed or unabsorbed serum i.v. one to two hours before administration of 2×10^6 SRBC i.v. Plaque-forming cell response was measured as in Example 2.

[3] = 5 μg Con A, n = 4, PF4 0.2 to 0.6 μg per mouse

Row | Molecule | Geom. Mean of PFC/Spleen On Day 5, Expt. 2 [1, 3] | Immunomodulatory activity against suppression induced by 5 μg Con A (result in words) [1] | Reversal of Con A-induced suppression (result in words) [1] | Enhancement of antibody (PFC) response without immunosuppressive agent (result in words) [2] | Geom. Mean of PFC/Spleen On Day 5, Expt. 3 ([1]; 5 μg Con A, n = 4, PF4 0.2 to 0.6 μg per mouse, PF4 + heparin mixture diluted 1:15, 0.2 ml per mouse)
1 | B1 | 9,440 PFC/Spleen | a small amount | no significant immunomodulating activity |  | 
2 | B2 | 22,910 PFC/Spleen | very marked activity | able to overcome Con A-induced suppression in a dose-dependent fashion | can also stimulate antibody formation even in mammals not treated with an immunosuppressive agent | 34,420 PFC/Spleen
